Results on 8 molecules are retold here after patent US20260193348A1 (ANTENGENE BIOLOGICS, published 2026).

The target in experiment [1] is T1, GPRC5D on MM.1S cells (human, UniProt Q9NZD1 1-345). The experiment is described as follows: cell-based or functional assay.
Experiment [2] deals with T1, GPRC5D on MM.1S cells. The experiment is described as follows: FACS on MM.1S cells. On the procedure: The binding affinities of the generated humanized Fab-scFv-Fab bispecific antibodies were determined by FACS analysis. […] (a) Jurkat cells were washed by Staining Buffer (PBS+1% BSA) in round bottom 96-well plate. [0833] (b) Antibody dilutions and cells were added to each well, incubated at 4 degrees for 1 hour. [0834] (c) Cells were spined down at 300 g for 3 minutes, and the supernatants were discarded. [0835] (d) Cells were washed with Staining Buffer. […] (e) Step (d) was repeated and the cells were incubated for 0.5 hours at 4 degrees with secondary antibody in Staining Buffer. [0837] (f) After incubation, step (d)-(e) were repeated. […] (g) Staining Buffer was added and fluorescence signals were recorded by flow cytometry.
The binding affinities of the generated humanized Fab-scFv-Fab bispecific antibodies were determined by FACS analysis. The ATG-Bis-40E9 was used as positive control and hIgG1 isotype was used as negative control. The protocol for FACS analysis is identical to that described in Example 3.2, except that MM.1S cells were used in this example.

The target of experiment [3] is T1, GPRC5D on MM.1S cells. The experiment is described as follows: cell-based or functional assay. This is another data set of the same source.
The target in experiment [4] is T2, CD3 on T cells / Jurkat cells (human, UniProt P07766 23-207; P04234 22-171; P09693 23-182).
T2 construct: whole, on cells; Native CD3 complex on CD3+ T cells isolated from normal donors or on Jurkat cells; also called human CD3; CD3+ T cells
T2 sequence (P07766 23-207, chain 1 of 3): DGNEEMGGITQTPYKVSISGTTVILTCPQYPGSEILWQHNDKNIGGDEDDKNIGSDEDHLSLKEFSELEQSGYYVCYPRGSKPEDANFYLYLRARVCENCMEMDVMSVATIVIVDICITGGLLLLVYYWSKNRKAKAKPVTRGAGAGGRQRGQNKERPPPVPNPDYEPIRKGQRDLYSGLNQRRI
T2 sequence (P04234 22-171, chain 2 of 3): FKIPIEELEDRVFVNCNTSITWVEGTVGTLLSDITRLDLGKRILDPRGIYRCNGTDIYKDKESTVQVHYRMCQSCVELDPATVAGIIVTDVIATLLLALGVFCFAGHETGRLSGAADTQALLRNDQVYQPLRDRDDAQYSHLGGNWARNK
T2 sequence (P09693 23-182, chain 3 of 3): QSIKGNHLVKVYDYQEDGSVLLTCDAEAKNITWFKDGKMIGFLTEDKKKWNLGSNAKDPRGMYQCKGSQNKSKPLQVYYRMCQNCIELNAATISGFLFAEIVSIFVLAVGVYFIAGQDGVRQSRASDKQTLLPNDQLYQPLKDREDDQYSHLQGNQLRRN
The experiment is described as follows: FACS on Jurkat cells.

T1 sequence (Q9NZD1 whole entry): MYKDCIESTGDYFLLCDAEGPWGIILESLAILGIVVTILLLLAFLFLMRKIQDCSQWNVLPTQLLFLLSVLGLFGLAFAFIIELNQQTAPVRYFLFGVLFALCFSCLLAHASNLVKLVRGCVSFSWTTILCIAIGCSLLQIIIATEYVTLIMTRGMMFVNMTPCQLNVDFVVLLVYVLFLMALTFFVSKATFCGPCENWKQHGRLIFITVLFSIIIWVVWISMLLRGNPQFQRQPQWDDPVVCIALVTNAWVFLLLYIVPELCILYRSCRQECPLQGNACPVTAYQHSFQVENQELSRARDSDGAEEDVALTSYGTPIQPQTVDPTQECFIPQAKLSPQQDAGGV

B1: Bis-108+ch147 (bispecific antibody)
heavy 1: not shown
heavy 2: EVQLVQSGAEVKKPGASVKVSCKASGYTFTSYVIHWVRQAPGQGLEWMGYFNPYNDGTKYNEEFKGRVTLTSDKSTSTAYMELRSLRSDDTAVYYCARGGVRRYFDVWGQGTTVTVSSASTKGPSVFPLAPSSKSTSGGTAALGCLVKDYFPEPVTVSWNSGALTSGVHTFPAVLQSSGLYSLSSVVTVPSSSLGTQTYICNVNHKPSNTKVDKKVEPKSCGGGGSGGGGSQVQLQQPGTELVKPGTSVKLSCKASGYTFTSYWMHWVKQRPGQCLEWIGNINPSNGATNYNEKFKSKATLTVDKSSSTAYMQLSSLTSEDSAVYYCARDRSSQYYFDYWGQGTTLTVSSGGGGSGGGGSGGGGSGGGGSDIVMSQSPSSLAVSAGEKVTMSCKSSQSLLNSRSRKNYLAWYQQKPGQSPKLLIYWASTRESGVPDRFTGSGSGTDFTLTISSVQAEDLAVYYCTQSYTLRTFGCGTKLEIKGGGGSGGGGSDKTHTCPPCPAPEAAGGPSVFLFPPKPKDTLMISRTPEVTCVVVDVSHEDPEVKFNWYVDGVEVHNAKTKPREEQYNSTYRVVSVLTVLHQDWLNGKEYKCKVSNKALPAPIEKTISKAKGQPREPQVCTLPPSREEMTKNQVSLSCAVKGFYPSDIAVEWESNGQPENNYKTTPPVLDSDGSFFLVSKLTVDKSRWQQGNVFSCSVMHEALHNHYTQKSLSLSPGK
light: DIQMTQSPSSLSASVGDRVTITCRASQDIGSNLNWLQQKPGKAIKRLIYATFGLDSGVPSRFSGSRSGTDFTLTISSLQPEDFATYYCQQYASFPYTFGGGTKVEIKRTVAAPSVFIFPPSDEQLKSGTASVVCLLNNFYPREAKVQWKVDNALQSGNSQESVTEQDSKDSTYSLSSTLTLSKADYEKHKVYACEVTHQGLSSPVTKSFNRGEC
notes: Fab-scFv-Fab format
The term EC50 denotes the concentration giving half of the maximal effect. As to B1, in experiment [1], the “EC50, Jurkat-NFAT-Luciferase assay in the presence of MM.1S cells” value came to 0.11 nM and the “Top RLU, Jurkat-NFAT-Luciferase assay in the presence of MM.1S cells” value is 368 RLU. In experiment [2], the EC50 was found to be 2.61 nM and the Top signal amounted to 2260 MFI. Besides, in experiment [3], the “IC50 of T-cell dependent cytotoxicity on MM.1S cells” value was found to be 0.53 nM and the “Top (%) target cell killing, MM.1S cells” value worked out at 99.4%.

B2: Bis-108+147-R35S.L (bispecific antibody)
heavy 1: not shown
heavy 2: EVQLVQSGAEVKKPGASVKVSCKASGYTFTSYVIHWVRQAPGQGLEWMGYFNPYNDGTKYNEEFKGRVTLTSDKSTSTAYMELRSLRSDDTAVYYCARGGVRRYFDVWGQGTTVTVSSASTKGPSVFPLAPSSKSTSGGTAALGCLVKDYFPEPVTVSWNSGALTSGVHTFPAVLQSSGLYSLSSVVTVPSSSLGTQTYICNVNHKPSNTKVDKKVEPKSCGGGGSGGGGSEVQLVQSGAEVKKPGSSVKVSCKASGYTFTSYWMHWVRQAPGQCLEWMGNINPSSGATNYNEKFKSRVTLTVDKSTSTAYMELSSLRSEDTAVYYCARDRSSQYYFDYWGQGTTVTVSSGGGGSGGGGSGGGGSGGGGSDIVMTQSPDSLAVSLGERATINCKSSQSLLNSRSSKNYLAWYQQKPGQPPKLLIYWASTRESGVPDRFSGSGSGTDFTLTISSLQAEDVAVYYCTQSYTLRTFGCGTKVEIKGGGGSGGGGSDKTHTCPPCPAPEAAGGPSVFLFPPKPKDTLMISRTPEVTCVVVDVSHEDPEVKFNWYVDGVEVHNAKTKPREEQYNSTYRVVSVLTVLHQDWLNGKEYKCKVSNKALPAPIEKTISKAKGQPREPQVCTLPPSREEMTKNQVSLSCAVKGFYPSDIAVEWESNGQPENNYKTTPPVLDSDGSFFLVSKLTVDKSRWQQGNVFSCSVMHEALHNHYTQKSLSLSPGK
light: DIQMTQSPSSLSASVGDRVTITCRASQDIGSNLNWLQQKPGKAIKRLIYATFGLDSGVPSRFSGSRSGTDFTLTISSLQPEDFATYYCQQYASFPYTFGGGTKVEIKRTVAAPSVFIFPPSDEQLKSGTASVVCLLNNFYPREAKVQWKVDNALQSGNSQESVTEQDSKDSTYSLSSTLTLSKADYEKHKVYACEVTHQGLSSPVTKSFNRGEC
notes: Fab-scFv-Fab format
As to B2, in experiment [1], the “EC50, Jurkat-NFAT-Luciferase assay in the presence of MM.1S cells” value was determined as 1.87 nM and the “Top RLU, Jurkat-NFAT-Luciferase assay in the presence of MM.1S cells” value was found to be 344 RLU. In experiment [2], this molecule gave a 50% effective concentration (EC50) of 1.53 nM and a Top signal of 1860 MFI. Further, in experiment [3], the “IC50 of T-cell dependent cytotoxicity on MM.1S cells” value was 1.64 nM and the “Top (%) target cell killing, MM.1S cells” value stood at 102%.

B3: Bis-40E9-L2H3-D99E.H (bispecific antibody)
VH: EVQLVQSGAEVKKPGASVKVSCKASGYTFTSYVIHWVRQAPGQGLEWMGYFNPYNDGTKYNEEFKGRVTLTSDKSTSTAYMELRSLRSDDTAVYYCARGGVRRYFDVWGQGTTVTVSS
VL: DIQMTQSPSSLSASVGDRVTITCRASQDIGSNLNWLQQKPGKAIKRLIYATFGLDSGVPSRFSGSRSGTDFTLTISSLQPEDFATYYCQQYASFPYTFGGGTKVEIK
scFv: EVQLVQSGAEVKKPGSSVKVSCKASGYTFSSYVIHWVRQAPGQCLEWMGYINPYNDVIKYNEKFKGRVTLTSDKSTSTAYMELSSLRSEDTAVYYCARESYYSYDGFAYWGQGTLVTVSSGGGGSGGGGSGGGGSGGGGSEIVLTQSPDFQSVTPKEKVTITCSASSSVSYMHWYQQKPDQSPKRLIYDTSKLASGVPSRFSGSGSGTDFTLTINSLEAEDAATYYCQQWSSNPPTFGCGTKVEIK
notes: L234A/L235A
As to B3, the binding result in experiment [4] is “binds”.

B4: Bis-40E9-L2H3-G106A.H (bispecific antibody)
VH: EVQLVQSGAEVKKPGASVKVSCKASGYTFTSYVIHWVRQAPGQGLEWMGYFNPYNDGTKYNEEFKGRVTLTSDKSTSTAYMELRSLRSDDTAVYYCARGGVRRYFDVWGQGTTVTVSS
VL: DIQMTQSPSSLSASVGDRVTITCRASQDIGSNLNWLQQKPGKAIKRLIYATFGLDSGVPSRFSGSRSGTDFTLTISSLQPEDFATYYCQQYASFPYTFGGGTKVEIK
scFv: EVQLVQSGAEVKKPGSSVKVSCKASGYTFSSYVIHWVRQAPGQCLEWMGYINPYNDVIKYNEKFKGRVTLTSDKSTSTAYMELSSLRSEDTAVYYCARDSYYSYDAFAYWGQGTLVTVSSGGGGSGGGGSGGGGSGGGGSEIVLTQSPDFQSVTPKEKVTITCSASSSVSYMHWYQQKPDQSPKRLIYDTSKLASGVPSRFSGSGSGTDFTLTINSLEAEDAATYYCQQWSSNPPTFGCGTKVEIK
notes: L234A/L235A
Take B4: the binding result in experiment [4] was “binds”.

B5: Bis-40E9-L2H3-D56G.H (bispecific antibody)
VH: EVQLVQSGAEVKKPGASVKVSCKASGYTFTSYVIHWVRQAPGQGLEWMGYFNPYNDGTKYNEEFKGRVTLTSDKSTSTAYMELRSLRSDDTAVYYCARGGVRRYFDVWGQGTTVTVSS
VL: DIQMTQSPSSLSASVGDRVTITCRASQDIGSNLNWLQQKPGKAIKRLIYATFGLDSGVPSRFSGSRSGTDFTLTISSLQPEDFATYYCQQYASFPYTFGGGTKVEIK
scFv: EVQLVQSGAEVKKPGSSVKVSCKASGYTFSSYVIHWVRQAPGQCLEWMGYINPYNGVIKYNEKFKGRVTLTSDKSTSTAYMELSSLRSEDTAVYYCARDSYYSYDGFAYWGQGTLVTVSSGGGGSGGGGSGGGGSGGGGSEIVLTQSPDFQSVTPKEKVTITCSASSSVSYMHWYQQKPDQSPKRLIYDTSKLASGVPSRFSGSGSGTDFTLTINSLEAEDAATYYCQQWSSNPPTFGCGTKVEIK
notes: L234A/L235A
Consider B5, for which, in experiment [4], the binding result is reported as “binds”.

B6: Bis-40E9-L3H1 (bispecific antibody)
VH: EVQLVQSGAEVKKPGASVKVSCKASGYTFTSYVIHWVRQAPGQGLEWMGYFNPYNDGTKYNEEFKGRVTLTSDKSTSTAYMELRSLRSDDTAVYYCARGGVRRYFDVWGQGTTVTVSS
VL: DIQMTQSPSSLSASVGDRVTITCRASQDIGSNLNWLQQKPGKAIKRLIYATFGLDSGVPSRFSGSRSGTDFTLTISSLQPEDFATYYCQQYASFPYTFGGGTKVEIK
scFv: EVQLVQSGAEVKKPGSSVKVSCKASGGTFSSYVIHWVRQAPGQCLEWMGYINPYNDVIKYNEKFKGRVTITADKSTSTAYMELSSLRSEDTAVYYCARDSYYSYDGFAYWGQGTLVTVSSGGGGSGGGGSGGGGSGGGGSEIVLTQSPDFQSVTPKEKVTITCSASSSVSYMHWYQQKPDQSPKRWIYDTSKLASGVPSRFSGSGSGTDYTLTINSLEAEDAATYYCQQWSSNPPTFGCGTKVEIK
notes: L234A/L235A
On to B6, for which the binding result in experiment [4] is recorded as “binds”.

B7: Bis-40E9-L2H4 (bispecific antibody)
VH: EVQLVQSGAEVKKPGASVKVSCKASGYTFTSYVIHWVRQAPGQGLEWMGYFNPYNDGTKYNEEFKGRVTLTSDKSTSTAYMELRSLRSDDTAVYYCARGGVRRYFDVWGQGTTVTVSS
VL: DIQMTQSPSSLSASVGDRVTITCRASQDIGSNLNWLQQKPGKAIKRLIYATFGLDSGVPSRFSGSRSGTDFTLTISSLQPEDFATYYCQQYASFPYTFGGGTKVEIK
scFv: EVQLVQSGAEVKKPGSSVKVSCKASGYTFSSYVIHWVRQAPGQCLEWIGYINPYNDVIKYNEKFKGRATLTSDKSTSTAYMELSSLRSEDTAVYYCARDSYYSYDGFAYWGQGTLVTVSSGGGGSGGGGSGGGGSGGGGSEIVLTQSPDFQSVTPKEKVTITCSASSSVSYMHWYQQKPDQSPKRLIYDTSKLASGVPSRFSGSGSGTDFTLTINSLEAEDAATYYCQQWSSNPPTFGCGTKVEIK
notes: L234A/L235A
In the case of B7, in experiment [4], the binding result is recorded as “binds”.

B8: Bis-40E9-L2H1 (bispecific antibody)
VH: EVQLVQSGAEVKKPGASVKVSCKASGYTFTSYVIHWVRQAPGQGLEWMGYFNPYNDGTKYNEEFKGRVTLTSDKSTSTAYMELRSLRSDDTAVYYCARGGVRRYFDVWGQGTTVTVSS
VL: DIQMTQSPSSLSASVGDRVTITCRASQDIGSNLNWLQQKPGKAIKRLIYATFGLDSGVPSRFSGSRSGTDFTLTISSLQPEDFATYYCQQYASFPYTFGGGTKVEIK
scFv: EVQLVQSGAEVKKPGSSVKVSCKASGGTFSSYVIHWVRQAPGQCLEWMGYINPYNDVIKYNEKFKGRVTITADKSTSTAYMELSSLRSEDTAVYYCARDSYYSYDGFAYWGQGTLVTVSSGGGGSGGGGSGGGGSGGGGSEIVLTQSPDFQSVTPKEKVTITCSASSSVSYMHWYQQKPDQSPKRLIYDTSKLASGVPSRFSGSGSGTDFTLTINSLEAEDAATYYCQQWSSNPPTFGCGTKVEIK
notes: Fab-scFv-Fab (2+1): two humanized anti-GPRC5D Fabs and one anti-CD3 scFv (VH-(GGGGS)4-VL) joined by (GGGGS)2 linkers to CH1 of one Fab and to CH2; L234A/L235A
Consider B8, for which the binding result in experiment [4] is listed as “binds”.
